Assay results as given in article PMC9972567.

Molecular target: Ep300 (UniProt B2RWS6)
Test: anti-V5 IP, Ep300 immunoblot
Settings: reference: wild type; sites S656

PIMT/TGS1 (human PIMT-V5) (from UniProt Q96RS0) S656A
binding against the reference: weaker
